The values below are quoted from earlier work in patent publication US20150050259A1, “NUTRACEUTICAL MODULATORS OF STEM CELL ACTIVITY” (Creative Medical Health Inc., priority 2011, published 2015).

The conditions of series [1]: patients after intensive chemotherapy.
The conditions of series [2]: acute stroke patients.
For series [3] the following is noted: 114 patients, 56 treated and 58 control.
For series [4] the following is noted: stroke patients.
[5] abbreviates: 2.5, 5, or 10 μg/kg G-CSF for 5 consecutive days.
Where [6] appears, read: between baseline and 12-month follow-up.

As for “GH: growth hormone, a 191-amino acid, single chain polypeptide hormone naturally produced by the anterior pituitary”, the “abnormal growth or acromegaly after treatment” value in series [1] is “no abnormal growth or acromegaly was observed”. The “recovery of platelets to 25×10(9)/l, median time” value in series [1] (P=0.03 versus placebo) is on record as 16 days.

B1: G-CSF: Granulocyte colony stimulating factor, cytokine drug used for neutropenia and mobilization of hematopoietic stem cells (protein, UniProt P09919 31-207, looked up)
Granulocyte …: TPLGPASSLPQSFLLKCLEQVRKIQGDGAALQEKLVSECATYKLCHPEELVLLGHSLGIPWAPLSSCPSQALQLAGCLSQLHSGLFLYQGLLQALEGISPELGPTLDTLQLDVADFATTIWQQMEELGMAPALQPTQGAMPAFASAFQRRAGGVLVASHLQSFLEVSYRVLRHLAQP
For B1, in series [2] (setting [5]), the “increase in the leukocyte count” value is on record as “up to 75,500 /μl” and the “mobilization of CD34(+) cells” value was “Mobilization of CD34(+) cells was observed”. For the same molecule, the “G-CSF toxicity in neuroradiological and neuropsychological follow-up” value in series [2] was “did not disclose any specific G-CSF toxicity”. Moreover, the “increase of CD34s over normal” value (subcutaneous G-CSF) was 20 fold. The safety of administration result (subcutaneous G-CSF 10 μg/kg for 6 days, revascularized STEMI patients) is recorded as “safe”. For the same molecule, the “influence on infarct size, left ventricular function, or coronary restenosis” value in series [3] is given as “no influence on infarct size, left ventricular function, or coronary restenosis”. In series [4] (setting [6]), the “BI: change in the mean group score” value is 120%, the “EMS: change in the mean group score” value is 106%, the “ESS: change in the mean group score” value is reported as 33% and the “NIHSS: change in the mean group score” value was 59%. Further, the “adverse effects as a result of treatment” value in series [4] is listed as “no serious adverse effects”.
